Assays:
[1] = tested on: mouse fibroblasts null for FN (FN−/−); assay: Survival of FN-null fibroblasts on FN domains with PDGF-BB; assay type: cell-based; settings: for FN-null cell survival / proliferation with PDGF-BB: FNIII8-11 + the named domain, or named protein
Description: To further investigate the response of cells to PDGF-BB bound to FN domains, we investigated the survival response of mouse fibroblasts null for FN (FN−/−). First we determined the response of FN-null cells to PDGF-BB in the absence of serum or other sources of exogenous FN. […] […] […] Importantly, differential response of FN-null cells, plated on different FN domains, to PDGF-BB was not secondary to differences in attachment as judged by cell counts two hours after plating. The FNIII8-11 central cell binding domain was present in all circumstances.

fibroblast chemotaxis = assay: Fibroblast chemotaxis to GFs in the presence or absence of FN domains; assay type: cell-based; settings: in solution
Procedure: To determine whether FN functional domains modulated TGF-β1, bFGF or PDGF-BB activity in solution, fibroblast chemotaxis was performed in response to the GFs in the presence or absence of FN domains.

PDGF-BB [2] = target: T1, PDGF-BB (Homo sapiens, UniProt P01127); assay: Surface plasmon resonance kinetic binding of PDGF-BB to FN domains; settings: for Kd: kinetic binding
Description: VEGF, TGF-β1, PDGF-BB and FGF-2 bound IIICS with similar affinities (KD˜10^−7 M). […] The tested biological activities of GFs bound to a FN functional domain were retained or enhanced. […] In addition, our studies provide important information regarding the delivery of GFs and the sequestering of GFs, as appropriate, for therapeutic (e.g., surgical) or aesthetic indications, including wound healing treatments (where an aim is GF delivery) and cancer treatments (where an aim is GF sequestration). Where FN fragments are used to deliver GFs, they may be described as maintaining, activating, stabilizing or enhancing GF activity. […]

PDGF-BB [3] = target: T1, PDGF-BB; assay: Equilibrium binding of PDGF-BB to FN, FN domains and peptides
Description: (§1) This led us to speculate that PDGF was binding to the engineered ECM through the H or HV domain since vascular endothelial GF (VEGF), a member of the PDGF superfamily, had been reported to bind H and remain active while bound.
(§2) The survival of FN-null fibroblasts in the presence to PDGF-BB required substrate coated with intact FN or FNIII8-11+a PDGF-binding FN domain. […] To address this directly, we performed equilibrium binding assays with PDGF-BB to FN adsorbed to a surface or coupled to agarose beads. In addition, we also investigated the ability of other growth factors to bind intact FN.

GFs = assay: Growth factor binding to FN domains (GFs in general)
Description: as §1

EGF = EGF (Homo sapiens, UniProt P01133); assay: Binding of EGF to FN, FN domains and peptides
Description: (§3) VEGF, TGF-β1, PDGF-BB and FGF-2 bound IIICS with similar affinities (KD˜10^−7 M). […] The tested biological activities of GFs bound to a FN functional domain were retained or enhanced. […] In addition, our studies provide important information regarding the delivery of GFs and the sequestering of GFs, as appropriate, for therapeutic (e.g., surgical) or aesthetic indications, including wound healing treatments (where an aim is GF delivery) and cancer treatments (where an aim is GF sequestration). Where FN fragments are used to deliver GFs, they may be described as maintaining, activating, stabilizing or enhancing GF activity.
as §2
(§4) To determine whether FN domains bind TGF-β1 and bFGF, equilibrium and kinetic binding was performed.

VEGF = assay: Plasmon resonance binding of VEGF to FN domains
Description: as §3

bFGF = bFGF (Homo sapiens, UniProt P09038); assay: Equilibrium binding of bFGF (FGF-2) to FN, FN domains and peptides; settings: method not specified (equilibrium and kinetic binding performed); read-out: KD, bFGF binding
Procedure: as §2, §4

TGF-β1 [4] = target: T2, TGF-β1 (Homo sapiens, UniProt P01137); assay: Equilibrium binding of TGF-β1 to FN, FN domains and peptides
Procedure: These peptides represent domains that follow the sequence pattern [QN]-X(1,2)-[ST]-X(0,1)-[IG]-[QS]-[KRQ]-[YTM]-[IG]-X(4,5)-X(0,1)-[KR]-X(1,2)-X(1,2)-[RT]-X(1,2)-[KQTS]-X(2)-T and that bind TGF-β1 with a certain affinity. […] We know of no other peptides in the human genome database that follow this pattern.
as §4

FGF-2 = FGF-2 (Homo sapiens, UniProt P09038); assay: Plasmon resonance binding of FGF-2 to FN domains
Description: as §3

TGF-β1 [5] = target: T2, TGF-β1; assay: Plasmon surface resonance kinetic binding of TGF-β1 to FN domains; settings: for Kd: plasmon (surface) resonance, kinetic binding
Description: as §3, §4

[6] = method not specified (equilibrium and kinetic binding performed)

Sequence of bFGF (P09038 143-288): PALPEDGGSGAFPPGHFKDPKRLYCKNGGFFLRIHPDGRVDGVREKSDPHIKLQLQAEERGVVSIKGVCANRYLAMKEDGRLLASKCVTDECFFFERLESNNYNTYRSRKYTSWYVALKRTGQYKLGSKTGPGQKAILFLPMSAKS
Sequence of FGF-2 (P09038 143-288): as above
T1 sequence (P01127 82-190 limits assumed): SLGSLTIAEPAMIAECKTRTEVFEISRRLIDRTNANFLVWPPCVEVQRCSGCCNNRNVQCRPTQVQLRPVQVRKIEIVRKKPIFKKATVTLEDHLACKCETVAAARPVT
T2 sequence (P01137 279-390 limits assumed, species assumed): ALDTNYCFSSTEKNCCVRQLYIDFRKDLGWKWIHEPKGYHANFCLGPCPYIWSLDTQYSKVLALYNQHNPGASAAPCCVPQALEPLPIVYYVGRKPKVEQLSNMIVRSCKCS
Sequence of EGF (P01133 971-1023 limits assumed, species assumed): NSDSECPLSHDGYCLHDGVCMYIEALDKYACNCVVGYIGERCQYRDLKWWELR

Molecule	enhancement of chemotactic activity of TGF-β1, bFGF and PDGF-BB (fibroblast chemotaxis)	PDGF-BB binding (in words) (PDGF-BB [2])	Kd (bFGF) [nM]	Kd (TGF-β1 [4]; equilibrium binding) [nM]	FN-null cell survival / proliferation with PDGF-BB [1]	Kd (PDGF-BB [2]) [nM]	Kd (FGF-2) [nM]	Kd (PDGF-BB [3]) [nM]	Kd (TGF-β1 [5]) [nM]	Kd (TGF-β1 [4]; [6]) [nM]	further results
FNIII3-6: recombinant FN type III repeats 3-6 (protein) MGSAPDAPPDTTVDQVDDTSIVVRWSRPQAPITGYRIVYSPSVEGSSTELNLPETANSVTLSDLQPGVQYNITIYAVEENQESTPVVIQQETTGTPRSDTVPSPRDLQFVEVTDVKVTIMWTPPESAVTGYRVDVIPVNLPGEHGQRLPISRNTFAEVTGLSPGVTYYFKVFAVSHGRESKPLTAQQTTKLDAPTNLQFVNETDSTVLVRWTPPRAQITGYRLTVGLTRRGQPRQYNVGPSVSKYPLRNLQPASEYTVSLVAIKGNQESPKATGVFTTLQPGSSIPPYNTEVTETTIVITWTPAPRIGFKLGVRPSQGGEAPREVTSDSGSIVVSGLTPGVEYVYTIQVLRDGQERDAPIVNKVVTTSHHHHHHC	did not enhance	no binding	–	–	–	–	–	–	–	–	support of FN-null fibroblast survival in the presence of PDGF-BB ([1]; substrate coating, FNIII8-11 alone or + named domain): did not support cell survival; PDGF-BB binding (in words) (PDGF-BB [3]): did not; binding of any GF (in words) (GFs): In no case did any GF bind
FNIII12-V15: composite heparinII-binding and variably-spliced IIICS domains (protein) MGSAIPAPTDLKFTQVTPTSLSAQWTPPNVQLTGYRVRVTPKEKTGPMKEINLAPDSSSVVVSGLMVATKYEVSVYALKDTLTSRPAQGVVTTLENVSPPRRARVTDATETTITISWRTKTETITGFQVDAVPANGQTPIQRTIKPDVRSYTITGLQPGTDYKIYLYTLNDNARSSPVVIDASTAIDAPSNLRFLATTPNSLLVSWQPPRARITGYIIKYEKPGSPPREVVPRPRPGVTEATITGLEPGTEYTIYVIALKNNQKSEPLIGRKKTDELPQLVTLPHPNLHGPEILDVPSTVQKTPFVTHPGYDTGNGIQLPGTSGQQPSVGQQMIFEEHGFRRTTPPTTATPIRHRPRPYPPNVGEEIQIGHIPREDVDYHLYPHGPGLNPNASTGQEALSQTTISWAPFQDTSEYIISCHPVGTDEEPLQFRVPGTSTSATLTGLTRGATYNVIVEALKDQQRHKVREEVVTVGNSVNEGTSHHHHHHC	enhanced the chemotactic activity	–	37	97	enhance survival	17	37	21	–	–	EGF binding (in words) (EGF): all GFs, except EGF, bound; Kd (VEGF): 0.6 nM; chemotactic activity when assayed alone (fibroblast chemotaxis): no chemotactic activity; GF binding on addition of salt or acid (GFs; up to 2.5 M NaCl added or pH lowered to about 2.0): failed to demonstrate any diminution
FNIII12-13: FN type III repeats 12-13 (protein) AIPAPTDLKFTQVTPTSLSAQWTPPNVQLTGYRVRVTPKEKTGPMKEINLAPDSSSVVVSGLMVATKYEVSVYALKDTLTSRPAQGVVTTLENVSPPRRARVTDATETTITISWRTKTETITGFQVDAVPANGQTPIQRTIKPDVRSYTITGLQPGTDYKIYLYTLNDNARSSPVVIDAST	–	–	–	–	–	–	–	75	–	–	–
FNIII1-7: FN type III repeats 1-7 (protein) GPVEVFITETPSQPNSHPIQWNAPQPSHISKYILRWRPKNSVGRWKEATIPGHLNSYTIKGLKPGVVYEGQLISIQQYGHQEVTRFDFTTTSTSTPVTSNTVTGETTPFSPLVATSESVTEITASSFVVSWVSASDTVSGFRVEYELSEEGDEPQYLDLPSTATSVNIPDLLPGRKYIVNVYQISEDGEQSLILSTSQTTAPDAPPDTTVDQVDDTSIVVRWSRPQAPITGYRIVYSPSVEGSSTELNLPETANSVTLSDLQPGVQYNITIYAVEENQESTPVVIQQETTGTPRSDTVPSPRDLQFVEVTDVKVTIMWTPPESAVTGYRVDVIPVNLPGEHGQRLPISRNTFAEVTGLSPGVTYYFKVFAVSHGRESKPLTAQQTTKLDAPTNLQFVNETDSTVLVRWTPPRAQITGYRLTVGLTRRGQPRQYNVGPSVSKYPLRNLQPASEYTVSLVAIKGNQESPKATGVFTTLQPGSSIPPYNTEVTETTIVITWTPAPRIGFKLGVRPSQGGEAPREVTSDSGSIVVSGLTPGVEYVYTIQVLRDGQERDAPIVNKVVTPLSPPTNLHLEANPDTGVLTVSWERSTTPDITGYRITTTPTNGQQGNSLEEVVHADQSSCTFDNLSPGLEYNVSVYTVKDDKESVPISDTIIP	–	all four GFs bound	4.1	17	–	100	–	75	18	–	VEGF binding (in words) (VEGF): all four GFs bound; TGF-β1 binding (in words) (TGF-β1 [5]; plasmon resonance): all four GFs bound; FGF-2 binding (in words) (FGF-2): all four GFs bound
FNIII12-15: heparin II binding domain of FN (protein) MGSTIPAPTDLKFTQVTPTSLSAQWTPPNVQLTGYRVRVTPKEKTGPMKEINLAPDSSSVVVSGLMVATKYEVSVYALKDTLTSRPAQGVVTTLENVSPPRRARVTDATETTITISWRTKTETITGFQVDAVPANGQTPIQRTIKPDVRSYTITGLQPGTDYKIYLYTLNDNARSSPVVIDASTAIDAPSNLRFLATTPNSLLVSWQPPRARITGYIIKYEKPGSPPREVVPRPRPGVTEATITGLEPGTEYTIYVIALKNNQKSEPLIGRKKTGQEALSQTTISWAPFQDTSEYIISCHPVGTDEEPLQFRVPGTSTSATLTGLTRGATYNVIVEALKDQQRHKVREEVVTVGNSVNEGTSHHHHHHC	–	–	130	–	–	68	170	6.8	16	16	–
FNIII12-14: recombinant FN type III repeats 12-14, heparinII-binding domain (protein) MGSAIPAPTDLKFTQVTPTSLSAQWTPPNVQLTGYRVRVTPKEKTGPMKEINLAPDSSSVVVSGLMVATKYEVSVYALKDTLTSRPAQGVVTTLENVSPPRRARVTDATETTITISWRTKTETITGFQVDAVPANGQTPIQRTIKPDVRSYTITGLQPGTDYKIYLYTLNDNARSSPVVIDASTAIDAPSNLRFLATTPNSLLVSWQPPRARITGYIIKYEKPGSPPREVVPRPRPGVTEATITGLEPGTEYTIYVIALKNNQKSEPLIGRKKTTSHHHHHHC	–	–	1.9	–	enhance survival	55	–	35	7.6	7.6	FN-null cell survival with PDGF ([1]; plastic precoated with 0.15 μM GST-tagged FNIII8-11 ± the named domain, or named protein, PDGF-BB added 1 day after plating, 3 days): increased survival
